The subject of test [1] is carotid artery crush injury, vascular occlusion. The experiment in a line: Modified rabbit carotid artery crush injury model. It counts as in vivo, New Zealand White rabbits. As to conditions: 2-13.5 μg/kg. Here is the method: Zsig37 was administered in a modified rabbit carotid artery injury model (Folts et al., Circulation 79:116 (1989), and Golino et al., Thrombosis and Haemostasis 67:302 (1992)) to determine the degree of protection offered in preventing vascular occlusion following a crush injury.
Thirty-four male New Zealand White rabbits, approximately three to six months old (R&R Rabbitry; Stanwood, Wash.) were divided into two groups. Fifteen rabbits received doses of zsig37 ranging from 2-13.5 μg/kg and 19 control rabbits were injected with PBS or equivalent amounts of PBS or zsig39, another adipocyte complement related protein (WO99/10492). The rabbits were anesthetized with ketamine (50 mg/kg, IM) and maintained on halothane inhalation anesthesia for the duration of the study. The hair was shaved from the ears and neck and an angiocatheter was placed in the marginal ear vein for IV support. A midline incision was made in the neck and the carotid artery was accessed. Approximately 5 cm of the common carotid artery proximal to the internal/external bifurcation was exposed via blunt dissection away from the surrounding tissue and any visible side branches were cauterized. A flow probe (Transonic Systems, Inc.; Ithaca N.Y.) was placed distal to the anticipated injury site and a baseline blood flow was established. A 2.5-3.0 cm section of the vessel was then isolated from circulation using atraumatic vascular clamps. Following removal of the blood from the vessel segment, 0.4 ml of zsig37 in 0.9% sodium chloride or […] 0.9% sodium chloride as a control, was injected into the empty vessel segment using a 30 G needle. The vessel was left undisturbed for a five-minute pre-injury treatment. A 1.0 cm crush injury was then inflicted into the center of the vessel segment using a guarded hemostat and left undisturbed for 10 minutes. The vessel clamps were then removed and blood flow reestablished. Blood flow was monitored continuously for 60 minutes after which time the rabbits were euthanized and the vessel excised for histological analysis.

The test system of test [2] is platelets activated by CRP (platelet GPVI). Description: Inhibition of CRP activation of platelets by zsig37. It counts as cell-based, human. The note with it: plate coated with 5 μg/ml CRP; zsig37 0-200 μg/ml. The protocol: The lysine containing CRP (Ac-GKO-(GPO)10-GKOGV) (SEQ ID NO:15) was synthesized and cross-linked essentially as described by described by Morton (Morton et al., Biochem. J., 306(2):337-344 (Mar. 1, 1995)). The potency of the cross-linked CRP was determined using a using a modified microplate platelet aggregation method as described previously (Bednar B., et al., Thrombosis Research, 77(5):453-463 (1995)). Platelet rich plasma (PRP) was prepared by centrifugation (150 g, 30 min.) from citrated blood obtained from healthy volunteers. Modified Hepes Tyrodes buffer (10 mM Hepes, 137 mM NaCl, 2.7 mM KCL, 0.4 mM NaH2PO4, 1.2mM NaHCO3, 0.1% dextrose and 0.2% BSA fraction V) was used to adjust the platelet concentration to 2.6×10^8/mL. To determine potency, triplicate wells of 0-20 μg/ml of CRP was mixed with platelets in a 96-well flat bottom plate. As a control, collagen-I norm was assayed in triplicate at a final concentration of 1.25 μg/mL. The plate was agitated on a microplate reader and turbidity was monitored as percent light transmitted at 632 nm. The EC50 for the CRP was determined from 3 assays to be 0.1-0.2 μg/ml. […] The plate was washed three times with 5% BSA/PBS and triplicate wells of 0-200 μg/ml of zsig37 was incubated for 1 hour at room temperature. Platelets were then added and assayed as described.

Another test relates to A7-BaF-3 cells. Description: Proliferation assay on zsig37-coated plates, A7-BaF-3. Format: cell-based. As to conditions: 5,000 cells/well. Here is the method:
A second assay was performed with TF-1, DA-1, an IL-3 dependent cell line derived from the lymph node of a mouse with a B-cell lymphoma by outgrowth in IL-3 media, pre-B (p53−/− mouse marrow cells, IL-7 dependent, B220+, Thy1 low, Sca-1+), and A7BaF-3 cell lines as described above at 5,000 cells/well. BHK cells were also plated at 500 cells/well.

The test system of test [3] is atherosclerotic rabbit femoral/iliac artery crush injury. Description: Atherosclerotic Folts model, blood flow. Format: in vivo, New Zealand White rabbits. As to conditions: 1 mg/kg bolus, n=8, vs 1 mg/kg BSA; p=0.0305. From the text:
In the present experiment the standard Folts model was modified to study restenosis in rabbits. In this design, New Zealand White rabbits that normally are not prone to atherosclerosis were fed an atherogenic diet (e.g., 2% cholesterol and 6% coconut oil) for two weeks, underwent balloon denudation of an artery segment and then were continually fed the atherogenic diet. Within three weeks, atherosclerotic plaque had accumulated in the balloon-injured area. At this time, the animal was prepped for surgery and the atherosclerotic vessel was injured via a crush procedure and a Folts model study was performed.
Eleven male New Zealand White rabbits weighing 2.0-2.5 kg were used in this study. Atherosclerosis was developed in the right iliac and femoral arteries following a protocol described by Faxon et al., Am J. Cardiol., 1984, 53:72C-76C; and Faxon et al., Atherosclerosis. 1982, 2:125-133), with the following modifications. […]
Animals were administered 100 U/kg heparin. […] The flow rate was monitored and the vessel tapped to release the thrombus when the flow rate approached 0.7 ml/min. […] Blood flow through the injured vessel was monitored for 60 minutes post bolus infusion. […] Blood pressure was monitored throughout and, prior to termination, blood samples for coagulation factors were collected. […]
Statistical Analysis. All values are expressed as mean±SEM. […]

B1: zsig37: adipocyte complement related protein homolog, polypeptide of SEQ ID NO:2, inhibits collagen-mediated platelet activation and the complement pathway (protein, listed as Homo sapiens)
chain: MGSRGQGLLLAYCLLLAFASGLVLSRVPHVQGEQQEWEGTEELPSPPDHAERAEEQHEKYRPSQDQGLPASRCLRCCDPGTSMYPATAVPQINITILKGEKGDRGDRGLQGKYGKTGSAGARGHTGPKGQKGSMGAPGERCKSHYAAFSVGRKKPMHSNHYYQTVIFDTEFVNLYDHFNMFTGKFYCYVPGLYFFSLNVHTWNQKETYLHIMKNEEEVVILFAQVGDRSIMQSQSLMLELREQDQVWVRLYKGERENAIFSEELDTYITFSGYLVKHATEP
For B1, the “dose dependency of time patent” value in test [1] is “No dose dependency was seen”. The “mean percent time patent” value in test [1] (combined zsig37 treated groups, 60 minutes, standard error ±10.3%, controls 13.5%) is listed as 37.2%. In test [1] (unpaired t-test P=0.019), the “time patent compared to controls (meta analysis of all doses)” value is on record as “significant increase in time patent”. Besides, the “inhibition of CRP activation of platelets” value in test [2] is “results from 3 of 6 assays demonstrated inhibition of CRP”. Besides, the “growth of A7-BaF-3 cells” value with A7-BaF-3 cells is reported as “enhanced the growth”. In addition, the “blood flow in final 30 minutes” value in test [3] is “continuously patent”.

The record behind these values is patent US20060252692A1, “Inhibitors for use in hemostasis” (ZymoGenetics, Inc., priority 2002, published 2006).
